Data: IntAct's records for PubMed 20627101

B1: Induced myeloid leukemia cell differentiation protein Mcl-1 homolog (Mus musculus), P97287 (parent)
chain: MFGLRRNAVIGLNLYCGGASLGAGGGSPAGARLVAEEAKARREGGGEAALLPGARVVARPPPVGAEDPDVTASAERRLHKSPGLLAVPPEEMAASAAAAIVSPEEELDGCEPEAIGKRPAVLPLLERVSEAAKSSGADGSLPSTPPPPEEEEDDLYRQSLEIISRYLREQATGSKDSKPLGEAGAAGRRALETLRRVGDGVQRNHETAFQGMLRKLDIKNEGDVKSFSRVMVHVFKDGVTNWGRIVTLISFGAFVAKHLKSVNQESFIEPLAETITDVLVRTKRDWLVKQRGWDGFVEFFHVQDLEGGIRNVLLAFAGVAGVGAGLAYLIR

Variants of: B1
Settings: with ch60_human HSPD1, P10809
Sequence of ch60_human HSPD1, P10809 (P10809 whole entry): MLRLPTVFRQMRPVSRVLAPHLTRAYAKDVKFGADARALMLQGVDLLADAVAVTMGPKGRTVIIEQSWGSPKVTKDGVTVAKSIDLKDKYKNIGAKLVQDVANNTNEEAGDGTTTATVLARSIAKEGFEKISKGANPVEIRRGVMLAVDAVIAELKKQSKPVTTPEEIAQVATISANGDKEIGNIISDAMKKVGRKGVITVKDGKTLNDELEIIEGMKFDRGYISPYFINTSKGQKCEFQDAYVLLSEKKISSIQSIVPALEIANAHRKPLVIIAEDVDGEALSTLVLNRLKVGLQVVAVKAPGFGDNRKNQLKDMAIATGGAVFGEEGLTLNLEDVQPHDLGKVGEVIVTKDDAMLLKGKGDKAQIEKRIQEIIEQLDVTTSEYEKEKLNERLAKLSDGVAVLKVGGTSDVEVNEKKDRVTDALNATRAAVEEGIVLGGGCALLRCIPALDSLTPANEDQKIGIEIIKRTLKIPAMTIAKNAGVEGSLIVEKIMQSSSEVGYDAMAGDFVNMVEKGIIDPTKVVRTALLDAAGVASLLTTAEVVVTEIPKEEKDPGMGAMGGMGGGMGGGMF

effect of a mutation on the interaction	Variant
disrupting interaction	R6G
disrupting interaction	R32G
disrupting interaction	R5G
